Patent US7709606B2, “Interacting polypeptide comprising a heptapeptide pattern and a cellular penetration domain” (Ecole Normale Superieure de Lyon, priority 2003, dated 2010)
Substitutions are numbered along the chain they refer to. Like-named read-outs stand apart in the source and are kept apart here.

Assays:
Jurkat cells = experiment: intracellular entry, immunofluorescence in Jurkat cells; type: cell-based; conditions: 2 μM for one hour, analyzed 24 h later
Method: Light transmission and fluorescence images are shown for representative cells.
The immunofluorescence tests were carried out with a primary anti-FLAG antibody in a dilution of 1:500 incubated for 2 hours and a secondary antibody coupled to the Alexa Fluor 488 fluorophore (Molecular Probes) diluted 1:1000, incubated for one hour.
To confirm that SHPs do indeed enter the cell, immunofluorescence analyses were also carried out. Jurkat cells were incubated with 1 μM of SHP for 4 hours and after washing twice, the cells were cultured for 24 hours.

HIV-1-LA1 = experiment: antiviral test in PHA-P activated PBMC, RT activity; type: cell-based; conditions: for anti-HIV activity, replication of HIV-1-LA1: PBMC activated by PHA-P, 7th day, in words; for Percentage inhibition, Mean: HIV-1 LA1, day 7; for reduction of HIV-1 replication: PBMC activated with PHA-P
Method: (§1) These viruses were amplified in vitro with umbilical blood mononuclear cells (UBMC) activated with PHA-P. The cell-free supernatant was centrifuged at […] for 10 minutes to eliminate soluble factors, and the residue was re-suspended in cell culture medium. Virus stocks were titrated using PBMC cells activated with PHA-P and 50% tissue culture infectious doses (TCID50) were calculated using Kärber's formula.
PBMC cells were pre-treated for 30 minutes by 5 concentrations of each molecule and infected with 75 TCID50 of the HIV-1-LA1 strain. AZT (1.6, 8, 40, 200 and 1000 nM) and indinavir (1.6, 8, 40, 200 and 1000 nM) were used as the control. […] The molecules were maintained throughout culture, and the cellular supernatant was harvested 7 days post infection and stored at −20° C. to measure viral replication by reverse transcriptase activity (RT) assay.
(§2) HIV replication was analyzed by assaying the RT activity in the supernatants from cell cultures using the RetroSys RT kit (Innovagen). The experiments were carried out 3 times and the results are expressed as the mean of the RT activity±the standard deviation (SD).
In a last step, it was examined whether SHPs were actually capable of inhibiting HIV-1 replication. This was carried out in PBMCs activated by PHA-P and in MDMs. […] The effects of different SHPs was thus tested at this time. AZT and indinavir were used as controls.

Tat = biological target: T1, Tat (Human immunodeficiency virus type 1 group M subtype B, UniProt P04608); experiment: Tat functional test, LTR HIV-CAT reporter in HeLa cells; type: cell-based, HIV-1; conditions: higher concentrations
T1 construct: expressed in transfected cells; host or cells: HeLa
Method: The effect of the 4 SHPTs on the transactivation of the HIV-1 promoter by Tat was evaluated by transitory expression experiments in HeLa cells.

GST-Rev = GST-Rev (Human immunodeficiency virus type 1 group M subtype B, UniProt P04618); conditions: eluted with glutathione, immunoblot
Method: GXT-Rev was produced in bacteria and loaded onto an agarose-glutathion column. […] After rinsing, the proteins were eluted with glutathione. An aliquot of the feed, rinse and elution fractions was analyzed by immunoblot for GST-Rev (top graph) and for SHP using antibodies against GST or against FLAG respectively.
The SHPR activity was evaluated using the reporter construct pDM128 which included the coding sequence CAT and an RRE motif in an intron. Expression of Rev stimulated expression of CAT allowing an unspliced messenger to be exported to the cytoplasm. […] It was verified whether this inhibition was in fact directly correlated with a protein-protein interaction as predicted. To this end, both Rev and the SHPRs were produced in bacteria. […] Rev was expressed in fusion with GST and coupled to glutathione-agarose beads.

HIV-1/Ba-L = experiment: antiviral test in monocyte-derived macrophages (MDM), RT activity; type: cell-based; conditions: for inhibition of HIV replication: 2 μM on day 14; for Percentage inhibition, Mean / ED70 / ED90: MDMs, HIV-1/Ba-L
Method: as §1
The MDM cells were pre-treated for 30 minutes in 6 concentrations of different molecules and infected with 30000 TCID50 of the HIV-1/Ba-L strain. AZT (0.8, 4, 20, 100 and 500 nM) and indinavir (0.8, 4, 20, 100 and 500 nM) were used as the control. […] The molecules were maintained for 7 days post infection, and the cellular supernatant was harvested 7, 14 and 21 days post infection and stored at −20° C. to measure viral replication by reverse transcriptase activity (RT) assay.
as §2

Rev/RRE association = Rev/RRE association (Human immunodeficiency virus type 1 group M subtype B, UniProt P04618); conditions: Rev produced in bacteria, RRE RNA probe
Method: To this end, gel retard experiments were carried out with a RNA molecule corresponding to the RRE element as the probe. The Rev protein produced in bacteria binds to this RNA and induces a non denaturing polyacrylamide gel migration retardation.

Rev = Rev (Human immunodeficiency virus type 1 group M subtype B, UniProt P04618); conditions: HeLa cells
Method: This type of indicative construct allowed an evaluation of the effect of Rev, which by causing transport towards the cytoplasm of the non spliced RNA, allowed expression of the CAT enzyme.
The CAT activity was measured using the CAT ELISA kit (Roche).
These various mutants were tested using a transitory expression system consisting of transfecting HeLa cells of the reporter plasmid having the CAT sequence associated with the RRE in the intronic position with expression vectors for the Rev protein and the SHPR protein. […] The separation between the two values was less than 20%.
These vectors were transfected with the reporter plasmid pDM128 and the expression vector Rev as described in the above sections (and in Roisin et al, JBC (2004) 279: 9208). The quantity of CAT protein is expressed as a % of that corresponding to transfection of parental SHPR. A value of more than 100 thus indicates a negative effect on the inhibiting power of SHPR and a lower value indicates an increase in this inhibiting property.

[1] = system: PBMCs (resting and activated lymphocytes); experiment: penetration into PBMCs and stability in medium, anti-FLAG immunoblot; type: cell-based, human
Method: Mononuclear cells were prepared from peripheral blood, either directly (A) or after activation with PHA (phytohemagglutinin) and IL-2 (interleukin 2) (B), then incubated with 2 μM of SHPR-190. At the times indicated after addition of the interacting peptide, an aliquot of supernatant was analyzed by immunoblot using antibodies against FLAG (A, lines 1 to 4; B, lines 1 to 3). The cells were collected and lysed in RIPA buffer. The extract obtained was analyzed by immunoblot as described for the supernatant (A, lines 5 and 6; B, line 4). In portion A, the exposure times were different between lines 5 and 6 (30 s) and lines 1 to 4 (5 s).
To evaluate the capacity of SHPs to penetrate into cells, PBMCs were cultivated in medium supplemented with 2 μM of SHPR-190. At different times, an aliquot of supernatant was removed and the cells were collected. After washing several times, the cells were lysed in RIPA buffer and the supernatant as well as that which was extracted was analyzed by immunoblot using an antibody directed against the FLAG eiptope, which is present at the N-terminal end of SHP produced in bacteria.

T1 sequence (P04608 whole entry): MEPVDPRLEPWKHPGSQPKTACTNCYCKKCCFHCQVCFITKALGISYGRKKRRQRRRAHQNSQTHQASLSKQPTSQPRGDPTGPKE

B1: SHPT-8: SUMO-1-heptapeptide-Tat PTD protein selected against Tat; heptapeptide Phe Thr Met Arg Gly Val Asp (SEQ ID NO: 38) (protein)
chain: MSDQEAKPSTEDLGDKKEGEYIKLKVIGQDSSEIHFKVKMTTHLKKLKESYCQRQGVPMNSLRFLFEGQRIADNHTPKELGMEEEDVIEVYQEQTARPPNPKKEIELGGGGSFTMRGVDPGRKKRRQRRRG
For B1, the “immunofluorescence with antibody against FLAG” value (Jurkat cells) was “diffuse fluorescence”, the “anti-HIV activity, replication of HIV-1-LA1” value (HIV-1-LA1) was “did not have any anti-HIV activity” and the “Percentage inhibition, Mean” value (HIV-1-LA1; PBMCs, Dose 31 (nM)) was 0%. For the same molecule, the “Percentage inhibition, Mean” value (HIV-1-LA1; PBMCs, Dose 62.5 (nM)) was 0%, the “Percentage inhibition, Mean” value (HIV-1-LA1; PBMCs, Dose 125 (nM)) was 0% and the “Percentage inhibition, Mean” value (HIV-1-LA1; PBMCs, Dose 250 (nM)) was 0%. For the same molecule, the “Percentage inhibition, Mean” value (HIV-1-LA1; PBMCs, Dose 500 (nM)) was 0%, the “Percentage inhibition, Mean” value (HIV-1-LA1; PBMCs, Dose 1000 (nM)) was 0% and the “Percentage inhibition, Mean” value (HIV-1-LA1; PBMCs, Dose 2000 (nM)) was 0%. For the same molecule, the “Tat transactivation of the HIV-1 promoter” value (Tat) was “slight reduction in transactivation”, the “co-elution with GST-Rev” value (GST-Rev) was “no SHPT was present in fractions containing GST-Rev” and the “co-elution with GST-Rev” value (GST-Rev; listed as SHPR-8) was “did not bind to the protein on the column”. The “inhibition of HIV replication” value (HIV-1/Ba-L; MDM) was 69±6%, the “Percentage inhibition, Mean” value (HIV-1/Ba-L; Day 7, dose 62.5 (nM)) was 5% and the “Percentage inhibition, Mean” value (HIV-1/Ba-L; Day 7, dose 125 (nM)) was 39%. The “Percentage inhibition, Mean” value (HIV-1/Ba-L; Day 7, dose 250 (nM)) was 78%, the “Percentage inhibition, Mean” value (HIV-1/Ba-L; Day 7, dose 500 (nM)) was 78% and the “Percentage inhibition, Mean” value (HIV-1/Ba-L; Day 7, dose 1000 (nM)) was 70%. The “Percentage inhibition, Mean” value (HIV-1/Ba-L; Day 7, dose 2000 (nM)) was 84%, the ED70 (HIV-1/Ba-L; Day 14) was 2050 nM and the ED90 (HIV-1/Ba-L; Day 14) was 5500 nM. The “Percentage inhibition, Mean” value (HIV-1/Ba-L; Day 14, dose 62.5 (nM)) was 0%, the “Percentage inhibition, Mean” value (HIV-1/Ba-L; Day 14, dose 125 (nM)) was 2% and the “Percentage inhibition, Mean” value (HIV-1/Ba-L; Day 14, dose 250 (nM)) was 55%. The “Percentage inhibition, Mean” value (HIV-1/Ba-L; Day 14, dose 500 (nM)) was 50%, the “Percentage inhibition, Mean” value (HIV-1/Ba-L; Day 14, dose 1000 (nM)) was 46% and the “Percentage inhibition, Mean” value (HIV-1/Ba-L; Day 14, dose 2000 (nM)) was 69%. The “Percentage inhibition, Mean” value (HIV-1/Ba-L; Day 21, dose 62.5 (nM)) was 0%, the “Percentage inhibition, Mean” value (HIV-1/Ba-L; Day 21, dose 125 (nM)) was 5% and the “Percentage inhibition, Mean” value (HIV-1/Ba-L; Day 21, dose 250 (nM)) was 37%. The “Percentage inhibition, Mean” value (HIV-1/Ba-L; Day 21, dose 500 (nM)) was 21%, the “Percentage inhibition, Mean” value (HIV-1/Ba-L; Day 21, dose 1000 (nM)) was 20% and the “Percentage inhibition, Mean” value (HIV-1/Ba-L; Day 21, dose 2000 (nM)) was 59%. The “effect on Rev/RRE association (gel retardation)” value (Rev/RRE association) was “no particular effect”.

B2: SHPR-190: SUMO-1-heptapeptide-Tat PTD protein against Rev; heptapeptide Asn Trp Leu Cys Cys Leu Asn (SEQ ID NO: 3) (protein)
chain: B1 chain with F113N, T114W, M115L, R116C, G117C, V118L, D119N
For B2, the “immunofluorescence with antibody against FLAG” value (Jurkat cells) was “diffuse fluorescence”, the “anti-HIV activity, replication of HIV-1-LA1” value (HIV-1-LA1) was “reduced replication” and the “reduction of HIV-1 replication” value (HIV-1-LA1; 1 μM) was 80±7%. For the same molecule, the “reduction of HIV-1 replication” value (HIV-1-LA1; 2 μM) was 100%, the ED70 (HIV-1-LA1; PBMCs, HIV-1-LA1, 7th day) was 720 nM and the ED90 (HIV-1-LA1; PBMCs, HIV-1-LA1, 7th day) was 927 nM. The “Percentage inhibition, Mean” value (HIV-1-LA1; PBMCs, Dose 31 (nM)) was 0%, the “Percentage inhibition, Mean” value (HIV-1-LA1; PBMCs, Dose 62.5 (nM)) was 0% and the “Percentage inhibition, Mean” value (HIV-1-LA1; PBMCs, Dose 125 (nM)) was 0%. For the same molecule, the “Percentage inhibition, Mean” value (HIV-1-LA1; PBMCs, Dose 250 (nM)) was 0%, the “Percentage inhibition, Mean” value (HIV-1-LA1; PBMCs, Dose 500 (nM)) was 38% and the “Percentage inhibition, Mean” value (HIV-1-LA1; PBMCs, Dose 1000 (nM)) was 80%. For the same molecule, the “Percentage inhibition, Mean” value (HIV-1-LA1; PBMCs, Dose 2000 (nM)) was 100%, the “inhibition of HIV replication” value (HIV-1/Ba-L; MDM) was 92±2% and the “anti-HIV activity, HIV-1/Ba-L replication” value (HIV-1/Ba-L; MDM, in words) was “dose-dependent”. The “Percentage inhibition, Mean” value (HIV-1/Ba-L; Day 7, dose 62.5 (nM)) was 0%, the “Percentage inhibition, Mean” value (HIV-1/Ba-L; Day 7, dose 125 (nM)) was 34% and the “Percentage inhibition, Mean” value (HIV-1/Ba-L; Day 7, dose 250 (nM)) was 50%. The “Percentage inhibition, Mean” value (HIV-1/Ba-L; Day 7, dose 500 (nM)) was 89%, the “Percentage inhibition, Mean” value (HIV-1/Ba-L; Day 7, dose 1000 (nM)) was 94% and the “Percentage inhibition, Mean” value (HIV-1/Ba-L; Day 7, dose 2000 (nM)) was 99%. For the same molecule, the ED70 (HIV-1/Ba-L; Day 14) was 1040 nM, the ED90 (HIV-1/Ba-L; Day 14) was 1450 nM and the “Percentage inhibition, Mean” value (HIV-1/Ba-L; Day 14, dose 62.5 (nM)) was 0%. The “Percentage inhibition, Mean” value (HIV-1/Ba-L; Day 14, dose 125 (nM)) was 0%, the “Percentage inhibition, Mean” value (HIV-1/Ba-L; Day 14, dose 250 (nM)) was 0% and the “Percentage inhibition, Mean” value (HIV-1/Ba-L; Day 14, dose 500 (nM)) was 66%. For the same molecule, the “Percentage inhibition, Mean” value (HIV-1/Ba-L; Day 14, dose 1000 (nM)) was 70%, the “Percentage inhibition, Mean” value (HIV-1/Ba-L; Day 14, dose 2000 (nM)) was 92% and the ED70 (HIV-1/Ba-L; Day 21) was over 2000 nM. The ED90 (HIV-1/Ba-L; Day 21) was over 2000 nM, the “Percentage inhibition, Mean” value (HIV-1/Ba-L; Day 21, dose 62.5 (nM)) was 0% and the “Percentage inhibition, Mean” value (HIV-1/Ba-L; Day 21, dose 125 (nM)) was 0%. For the same molecule, the “Percentage inhibition, Mean” value (HIV-1/Ba-L; Day 21, dose 250 (nM)) was 0%, the “Percentage inhibition, Mean” value (HIV-1/Ba-L; Day 21, dose 500 (nM)) was 28% and the “Percentage inhibition, Mean” value (HIV-1/Ba-L; Day 21, dose 1000 (nM)) was 50%. For the same molecule, the “Percentage inhibition, Mean” value (HIV-1/Ba-L; Day 21, dose 2000 (nM)) was 60%, the “inhibition of the function of Rev (CAT from pDM128)” value (Rev) was “effective inhibitors of the function of Rev” and the “effect on Rev/RRE association (gel retardation)” value (Rev/RRE association) was “did not inhibit this association”. For the same molecule, the “stability in the culture medium” value ([1]; 2 μM in PBMC culture supernatant) was “stable in the culture medium”, the “presence inside the cell” value ([1]; 2 μM, resting and activated lymphocytes) was “a fraction of the protein was present inside the cell” and the intracellular concentration ([1]; external concentration of 2 μM, lymphocyte assumed a sphere 12μ in diameter) was 15 µM.
